Data as given in US20160002357A1 (Pfizer, published 2016).
Substitutions are numbered along the chain they refer to.

B1: 20 EK-DART (P-CAD 20 x CD3-2) (bispecific antibody)
chain 1: AIQMTQSPSSLSASVGDRVTITCRASQSIGKYLNWYQQIPGKAPKLLIYTASTLQTGVPSRFSGSGSGTDFTLTIVSLQPEDFATYYCQQSFNTPRTFGQGTKVEIKGGGSGGGGEVQLVESGGGLVQPGGSLRLSCAASGFTFNTYAMNWVRQAPGKGLEWVARIRSKYNNYATYYADSVKDRFTISRDDSKNSLYLQMNSLKTEDTAVYYCVRHGNFGNSYVSWFAYWGQGTLVTVSSGGCGGGKVAALKEKVAALKEKVAALKEKVAALKE
chain 2: QAVVTQEPSLTVSPGGTVTLTCRSSTGAVTTSNYANWVQQKPGQAPRGLIGGTNKRAPWTPARFSGSLLGGKAALTITGAQAEDEADYYCALWYSNLWVFGGGTKLTVLGGGGSGGGGEVQLVQSGAEVKKPGASVKVSCKASGYTFTGYYMHWVRQAPGQGLEWMGRINPNSGGTNYAQKFQGRVTMTRDTSISTAYMELSRLRSDDTAVYYCAKGSGSGAFDIWGQGTMVTVSSGGCGGGEVAALEKEVAALEKEVAALEKEVAALEK
B2: 34 EK-DART (P-CAD 34 x CD3-2) (bispecific antibody)
chain 1: QSVVTQPPSVSAAPGQKVTISCSGSSSNIGNNYVSWYQQLPGTAPKLLIYDNNKRPSGIPDRFSGSKSGTSATLGITGLQTGDEADYYCGTWDSSLSAWVFGGGTKLTVLGGGSGGGGEVQLVESGGGLVQPGGSLRLSCAASGFTFNTYAMNWVRQAPGKGLEWVARIRSKYNNYATYYADSVKDRFTISRDDSKNSLYLQMNSLKTEDTAVYYCVRHGNFGNSYVSWFAYWGQGTLVTVSSGGCGGGKVAALKEKVAALKEKVAALKEKVAALKE
chain 2: QAVVTQEPSLTVSPGGTVTLTCRSSTGAVTTSNYANWVQQKPGQAPRGLIGGTNKRAPWTPARFSGSLLGGKAALTITGAQAEDEADYYCALWYSNLWVFGGGTKLTVLGGGGSGGGGEVQLVQSGAEVKKPGASVKVSCKASGYTFTSYGISWVRQAPGQGLEWMGWISAYNGNTNYAQKLQGRVTMTTDTSTSTAYMELRSLRSDDTAVYYCATIDTASAFDIWGQGTMVTVSSGGCGGGEVAALEKEVAALEKEVAALEKEVAALEK
B3: 35 EK-DART (P-CAD 35 x CD3-2) (bispecific antibody)
chain 1: B2 chain 1 with V4L, W99V
chain 2: B2 chain 2
B4: LP-DART #6 (bispecific antibody)
chain 1: QAVVTQEPSLTVSPGGTVTLTCRSSTGAVTTSNYANWVQQKPGQAPRGLIGGTNKRAPWTPARFSGSLLGGKAALTITGAQAEDEADYYCALWYSNLWVFGGGTKLTVLGGGGSGGGGEVQLVQSGAEVKKPGASVKVSCKASGYTFTSYGISWVRQAPGQGLEWMGWISAYNGNTNYAQKLQGRVTMTTDTSTSTAYMELRSLRSDDTAVYYCATIDTASAFDIWGQGTMVTVSSGGTGGCPPCPAPEAAGAPSVFLFPPKPKDTLMISRTPEVTCVVVDVSHEDPEVKFNWYVDGVEVHNAKTKPREEQYNSTYRVVSVLTVLHQDWLNGKEYKCKVSNKALPAPIEKTISKAKGQPREPQVYTLPPCREEMTKNQVSLSCAVKGFYPSDIAVEWESNGQPENNYKTTPPVLDSDGSFFLVSKLTVDKSRWQQGNVFSCSVMHEALHNHYTQKSLSLSPG
chain 2: QSVLTQPPSVSAAPGQKVTISCSGSSSNIGNNYVSWYQQLPGTAPKLLIYDNNKRPSGIPDRFSGSKSGTSATLGITGLQTGDEADYYCGTWDSSLSAVVFGGGTKLTVLGGGSGGGGEVQLVESGGGLVQPGGSLRLSCAASGFTFNTYAMNWVRQAPGKGLEWVARIRSKYNNYATYYADSVKDRFTISRDDSKNSLYLQMNSLKTEDTAVYYCVRHGNFGNSYVSWFAYWGQGTLVTVSSGGTGGCPPCPAPEAAGAPSVFLFPPKPKDTLMISRTPEVTCVVVDVSHEDPEVKFNWYVDGVEVHNAKTKPREEQYNSTYRVVSVLTVLHQDWLNGKEYKCKVSNKALPAPIEKTISKAKGQPREPQVCTLPPSREEMTKNQVSLWCLVKGFYPSDIAVEWESNGQPENNYKTTPPVLDSDGSFFLYSKLTVDKSRWQQGNVFSCSVMHEALHNHYTQKSLSLSPG
notes: also called P-cadherin LP-DART construct #6 (P-CAD 35, CD3-2)
B5: LP-DART #4 (bispecific antibody)
chain 1: QAVVTQEPSLTVSPGGTVTLTCRSSTGAVTTSNYANWVQQKPGQAPRGLIGGTNKRAPWTPARFSGSLLGGKAALTITGAQAEDEADYYCALWYSNLWVFGGGTKLTVLGGGGSGGGGEVQLVQSGAEVKKPGASVKVSCKASGYTFTSYGISWVRQAPGQGLEWMGWISAYNGNTNYAQKLQGRVTMTTDTSTSTAYMELRSLRSDDTAVYYCATIDTASAFDIWGQGTMVTVSSGGTGGGEPKSSDKTHTCPPCPAPEAAGAPSVFLFPPKPKDTLMISRTPEVTCVVVDVSHEDPEVKFNWYVDGVEVHNAKTKPREEQYNSTYRVVSVLTVLHQDWLNGKEYKCKVSNKALPAPIEKTISKAKGQPREPQVCTLPPSREEMTKNQVSLWCLVKGFYPSDIAVEWESNGQPENNYKTTPPVLDSDGSFFLYSKLTVDKSRWQQGNVFSCSVMHEALHNHYTQKSLSLSPG
chain 2: QSVLTQPPSVSAAPGQKVTISCSGSSSNIGNNYVSWYQQLPGTAPKLLIYDNNKRPSGIPDRFSGSKSGTSATLGITGLQTGDEADYYCGTWDSSLSAVVFGGGTKLTVLGGGSGGGGEVQLVESGGGLVQPGGSLRLSCAASGFTFNTYAMNWVRQAPGKGLEWVARIRSKYNNYATYYADSVKDRFTISRDDSKNSLYLQMNSLKTEDTAVYYCVRHGNFGNSYVSWFAYWGQGTLVTVSSGGTGGGEPKSSDKTHTCPPCPAPEAAGAPSVFLFPPKPKDTLMISRTPEVTCVVVDVSHEDPEVKFNWYVDGVEVHNAKTKPREEQYNSTYRVVSVLTVLHQDWLNGKEYKCKVSNKALPAPIEKTISKAKGQPREPQVYTLPPCREEMTKNQVSLSCAVKGFYPSDIAVEWESNGQPENNYKTTPPVLDSDGSFFLVSKLTVDKSRWQQGNVFSCSVMHEALHNHYTQKSLSLSPG
notes: also called P-cadherin LP-DART construct #4 (P-CAD 35, CD3-2)
B6: LP-DART #5 (bispecific antibody)
chain 1: QAVVTQEPSLTVSPGGTVTLTCRSSTGAVTTSNYANWVQQKPGQAPRGLIGGTNKRAPWTPARFSGSLLGGKAALTITGAQAEDEADYYCALWYSNLWVFGGGTKLTVLGGGGSGGGGEVQLVQSGAEVKKPGASVKVSCKASGYTFTSYGISWVRQAPGQGLEWMGWISAYNGNTNYAQKLQGRVTMTTDTSTSTAYMELRSLRSDDTAVYYCATIDTASAFDIWGQGTMVTVSSGCPPCPAPEAAGAPSVFLFPPKPKDTLMISRTPEVTCVVVDVSHEDPEVKFNWYVDGVEVHNAKTKPREEQYNSTYRVVSVLTVLHQDWLNGKEYKCKVSNKALPAPIEKTISKAKGQPREPQVYTLPPCREEMTKNQVSLSCAVKGFYPSDIAVEWESNGQPENNYKTTPPVLDSDGSFFLVSKLTVDKSRWQQGNVFSCSVMHEALHNHYTQKSLSLSPG
chain 2: QSVLTQPPSVSAAPGQKVTISCSGSSSNIGNNYVSWYQQLPGTAPKLLIYDNNKRPSGIPDRFSGSKSGTSATLGITGLQTGDEADYYCGTWDSSLSAVVFGGGTKLTVLGGGSGGGGEVQLVESGGGLVQPGGSLRLSCAASGFTFNTYAMNWVRQAPGKGLEWVARIRSKYNNYATYYADSVKDRFTISRDDSKNSLYLQMNSLKTEDTAVYYCVRHGNFGNSYVSWFAYWGQGTLVTVSSGCPPCPAPEAAGAPSVFLFPPKPKDTLMISRTPEVTCVVVDVSHEDPEVKFNWYVDGVEVHNAKTKPREEQYNSTYRVVSVLTVLHQDWLNGKEYKCKVSNKALPAPIEKTISKAKGQPREPQVCTLPPSREEMTKNQVSLWCLVKGFYPSDIAVEWESNGQPENNYKTTPPVLDSDGSFFLYSKLTVDKSRWQQGNVFSCSVMHEALHNHYTQKSLSLSPG
notes: also called P-cadherin LP-DART construct #5 (P-CAD 35, CD3-2)
B7: LP-DART #7 (bispecific antibody)
chain 1: QAVVTQEPSLTVSPGGTVTLTCRSSTGAVTTSNYANWVQQKPGQAPRGLIGGTNKRAPWTPARFSGSLLGGKAALTITGAQAEDEADYYCALWYSNLWVFGGGTKLTVLGGGGSGGGGEVQLVQSGAEVKKPGASVKVSCKASGYTFTSYGISWVRQAPGQGLEWMGWISAYNGNTNYAQKLQGRVTMTTDTSTSTAYMELRSLRSDDTAVYYCATIDTASAFDIWGQGTMVTVSSGEPKSSDKTHTCPPCPAPEAAGAPSVFLFPPKPKDTLMISRTPEVTCVVVDVSHEDPEVKFNWYVDGVEVHNAKTKPREEQYNSTYRVVSVLTVLHQDWLNGKEYKCKVSNKALPAPIEKTISKAKGQPREPQVYTLPPCREEMTKNQVSLSCAVKGFYPSDIAVEWESNGQPENNYKTTPPVLDSDGSFFLVSKLTVDKSRWQQGNVFSCSVMHEALHNHYTQKSLSLSPG
chain 2: QSVLTQPPSVSAAPGQKVTISCSGSSSNIGNNYVSWYQQLPGTAPKLLIYDNNKRPSGIPDRFSGSKSGTSATLGITGLQTGDEADYYCGTWDSSLSAVVFGGGTKLTVLGGGSGGGGEVQLVESGGGLVQPGGSLRLSCAASGFTFNTYAMNWVRQAPGKGLEWVARIRSKYNNYATYYADSVKDRFTISRDDSKNSLYLQMNSLKTEDTAVYYCVRHGNFGNSYVSWFAYWGQGTLVTVSSGEPKSSDKTHTCPPCPAPEAAGAPSVFLFPPKPKDTLMISRTPEVTCVVVDVSHEDPEVKFNWYVDGVEVHNAKTKPREEQYNSTYRVVSVLTVLHQDWLNGKEYKCKVSNKALPAPIEKTISKAKGQPREPQVCTLPPSREEMTKNQVSLWCLVKGFYPSDIAVEWESNGQPENNYKTTPPVLDSDGSFFLYSKLTVDKSRWQQGNVFSCSVMHEALHNHYTQKSLSLSPG
notes: also called P-cadherin LP-DART construct #7 (P-CAD 35, CD3-2)

Assays:
[1] = molecular target: T1, human P-cadherin, cell surface expressed (human, UniProt P22223 108-829); assay: cell-based or functional assay
T1 sequence (P22223 108-829): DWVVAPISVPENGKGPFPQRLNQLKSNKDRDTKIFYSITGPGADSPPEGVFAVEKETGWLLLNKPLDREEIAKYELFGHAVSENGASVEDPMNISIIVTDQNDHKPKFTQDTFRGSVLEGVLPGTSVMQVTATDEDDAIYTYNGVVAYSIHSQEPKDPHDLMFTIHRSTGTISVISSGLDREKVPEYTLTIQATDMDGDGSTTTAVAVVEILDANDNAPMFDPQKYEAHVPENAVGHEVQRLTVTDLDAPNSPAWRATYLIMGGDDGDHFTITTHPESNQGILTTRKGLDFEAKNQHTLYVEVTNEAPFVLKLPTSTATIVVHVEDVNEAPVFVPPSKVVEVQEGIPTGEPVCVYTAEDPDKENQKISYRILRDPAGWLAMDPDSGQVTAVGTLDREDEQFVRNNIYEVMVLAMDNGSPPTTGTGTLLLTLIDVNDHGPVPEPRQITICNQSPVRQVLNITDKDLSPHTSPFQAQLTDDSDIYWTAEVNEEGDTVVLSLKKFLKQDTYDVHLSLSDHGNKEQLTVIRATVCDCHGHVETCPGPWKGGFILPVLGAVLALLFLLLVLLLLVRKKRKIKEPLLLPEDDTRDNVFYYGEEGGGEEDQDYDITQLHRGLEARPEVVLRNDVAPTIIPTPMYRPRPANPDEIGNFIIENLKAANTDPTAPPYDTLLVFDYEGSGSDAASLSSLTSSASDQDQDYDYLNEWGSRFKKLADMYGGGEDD

[2] = molecular target: T1, human P-cadherin, cell surface expressed; assay: cell-based or functional assay; remark: listed apart in the source
[3] = molecular target: T2, cynomolgus monkey P-cadherin ECD (cynomolgus monkey); assay: SPR
T2 construct: extracellular domain; also called cyno P-cadherin ECD; Cyno P-cadherin

[4] = molecular target: human P-cadherin expressed on the cell surface (human, UniProt P22223 108-829); assay: cell-based or functional assay
Chain of human P-cadherin expressed on the cell surface (P22223 108-829): as above

Binder	T cell directed cytotoxicity EC50, CHO-CDh3 (24 h), LDH release, human PBMC E:T 30:1 [1]	T cell directed cytotoxicity EC50, H1650 (24 h), LDH release, human PBMC E:T 30:1 [1]	T cell directed cytotoxicity EC50, H1650 (40 h), LDH release, human PBMC E:T 30:1 [1]	T cell directed cytotoxicity EC50, H1650 LDH 24 hr 30:1 D41183 [2]	T cell directed cytotoxicity EC50, HCT116 Luc 48 hr 10:1 D43905 [2]	Kd [3]	T cell Cytotoxicity [4]
B1	169 nM	36.4 nM					
B2	0.737 nM	5.6 nM	1.6 nM				
B3	0.0398 nM	0.501 nM	0.0532 nM	0.102 nM	0.205 nM		
B4						86.6 nM	1.29 nM
B5						128 nM	2.45 nM
B6						62.1 nM	0.74 nM
B7						96.6 nM	2.85 nM
